# From the supplement of paper PMC10126150
# ± gives the standard deviation of the averaged measurements.
# System: ATP
# Assay: switch fluorescence ratio, 500 uM ATP over buffer (Cy3 cluster intensity, sum of 5 cycles each) (fold (ratio)); higher = stronger signal-on switching upon ATP binding; sequences stand for … in TCGTCGGCAGCGTCAGATGTGTATAAGAGACAGTTTTTTTTTTTTTTTTTTTTTTTTT…TC
# Details: aptamer strand: ATP DNA aptamer (quencher-CACCTGGGGGAGTATTGCGGAGGAAGG + anchor), 100 nM annealed; ATP concentration: 500 uM
# How it was run: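 Per cluster, summed Cy3 intensity from the target cycles was divided by that from the buffer cycles to give the fluorescence ratio, then averaged per switch-domain sequence. Clusters outside 100-1000 RFU were excluded. The Cy3-labelled switching-strand clusters, on a modified Illumina MiSeq flow-cell, were annealed to 100 nM quencher-labelled ATP aptamer and imaged in selection buffer, then after 15 min with 500 uM ATP at 22 °C, for five cycles with NaOH stripping and re-annealing between them.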
# 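Also: ATP exposure 15 min at 22 °C before imaging.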
row,Sequence,switch fluorescence ratio
1,AAATCGTAGG,0.963 ± 0.054
2,AGAATTTGCG,0.974 ± 0.018
3,ATAAGAAGCG,1.02 ± 0.04
4,AAAAAATGTG,0.99 ± 0.031
5,GAGGTGAACA,1.04 ± 0.067
6,ATTTGGTACC,0.977 ± 0.043
7,TTTTGTGGTG,1.001 ± 0.007
8,CATGTCGACT,0.988 ± 0.046
9,TTTTTCTCGA,0.991 ± 0.034
10,GTGGTTTGTG,1 ± 0.011
11,ATTTAATGAA,0.982 ± 0.021
12,GTGATACAAA,0.999 ± 0.022
13,AGACCGTTCG,1.02 ± 0.0066
14,TAGAGGCGGG,0.981 ± 0.025
15,GAAAGGGTAC,1.56 ± 0.65
16,AAGTTGAAAA,1.004 ± 0.0028
17,AAAAGAGATT,0.995 ± 0.013
18,GCGTTAGGGG,0.979 ± 0.016
19,AAGGCATGAT,1.0128 ± 0.00018
20,CGAGGCAGGT,1.51 ± 0.093
21,CGGATGAGGG,1.01 ± 0.044
22,GAAAGGTTTT,0.9729 ± 0.0055
23,ACTCATGGCA,1.09 ± 0.046

row,Sequence,switch fluorescence ratio
1,TAGTGCCAGA,1.01 ± 0.012
2,AGGTTAAGGT,1.01 ± 0.02
3,GTATGAATGG,0.984 ± 0.049
4,GGGTATTACG,0.975 ± 0.023
5,AAGCCGGATG,1.005 ± 0.0095
6,AGGGCATTAT,1.04 ± 0.047
7,AAATTGCTGC,1.01 ± 0.036
8,GTAGTTAATG,0.984 ± 0.038
9,GCGCCGGGGG,1.03 ± 0.018
10,TTATTGACGC,0.937 ± 0.095
11,CAGCGTCTTT,0.994 ± 0.012
12,AGATGGGGGA,0.983 ± 0.026
13,ACCTGAATTA,1 ± 0.035
14,TTGCAAAAGC,1 ± 0.065
15,CAGGTATTGA,1 ± 0.03
16,CGGTTAGGGG,0.9829 ± 0.0021
17,GTGTACGGTG,1.01 ± 0.013
18,AATGGGTTCC,1.027 ± 0.0044
19,CATGTCGGCA,1 ± 0.019
20,CCTATTATTT,1 ± 0.051
21,GGCTTAGAGT,0.971 ± 0.011
22,GTTGTAGTGT,1.011 ± 0.0011
23,TAGTAGTTGT,1 ± 0.013

row,Sequence,switch fluorescence ratio
1,CGTGACCGGA,0.972 ± 0.014
2,TTGGTTAAAT,1.01 ± 0.026
3,ACAGGAGGTG,1.13 ± 0.035
4,ATTGCGGGCA,0.982 ± 0.035
5,TATGAATTGT,1.014 ± 0.01
6,GGAGAGGAAT,1.01 ± 0.044
7,AACTCCACGA,1.26 ± 0.32
8,ATCGGCACAT,1.1 ± 0.012
9,GCTGGTAAGC,0.9696 ± 0.0029
10,AAGGAAAAGT,1.01 ± 0.035
11,TGCAGCTGCG,0.974 ± 0.049
12,CGGGTAAGTT,1.09 ± 0.2
13,TGTGTTTTGT,0.979 ± 0.02
14,TAATGGGATG,0.974 ± 0.015
15,ATTCCGGTCT,0.978 ± 0.011
16,ATTCTACTGA,1.06 ± 0.062
17,CATTGGTGGC,0.992 ± 0.1
18,CTGTTTGTGA,0.995 ± 0.011
19,CCGGTTAGAG,1.05 ± 0.014
20,TTGCCGCTTG,1.21 ± 0.33
21,ATTTACCCTG,1.08 ± 0.022
22,GTGTAAGTAG,0.997 ± 0.024
23,CGGGTCGAAA,0.982 ± 0.049

row,Sequence,switch fluorescence ratio
1,GTTGGTATT,1.01 ± 0.024
2,TCCGGGCGGA,1.01 ± 0.021
3,ATCGAAGGTC,0.999 ± 0.015
4,TTAGTTGTAG,0.993 ± 0.026
5,TTAATAGCGG,0.997 ± 0.049
6,GATGGTGAAA,0.975 ± 0.039
7,TCAAGAGTTC,1.01 ± 0.06
8,GGGAGGTGGT,1.08 ± 0.17
9,ACGCCCGAAC,1.452 ± 0.013
10,AAACTCTTGT,1.01 ± 0.0033
11,GGGGCGTGCG,1.01 ± 0.02
12,AAAGACGGCA,1.53 ± 0.02
13,ATGGAAAGTG,0.9599 ± 0.0071
14,GACGAATTGG,0.997 ± 0.021
15,TTATCGGGGC,1 ± 0.025
16,GAGTCGGCCT,0.975 ± 0.012
17,AAGGTGGATA,1.11 ± 0.032
18,GGCATATGCG,1.013 ± 0.0068
19,GTTACTATTT,1.01 ± 0.019
20,GAGGTTGG,1.02 ± 0.017
21,AGGGTAATGT,0.9718 ± 0.0036
22,TTTATACGGG,1.02 ± 0.039
23,TTAAGGTAGC,1.03 ± 0.013

row,Sequence,switch fluorescence ratio
1,TTGTTGCGGA,0.997 ± 0.011
2,GCTCATTGGC,0.992 ± 0.027
3,AGGCCCGTTA,0.9957 ± 0.0027
4,TGCATTGCTG,1.01 ± 0.038
5,TAGTTGGCAG,0.9773 ± 0.0054
6,TAGTTCACGG,0.9991 ± 0.0073
7,GGGGGAATAC,2.26 ± 0.5
8,ACCACCGAGG,1.045 ± 0.0061
9,CAGGTAGATC,1.04 ± 0.05
10,GGCGGGGCAC,0.989 ± 0.038
11,TATTGGTCGG,0.993 ± 0.036
12,TTTTAGGGGG,1 ± 0.038
13,TTGAACGGGG,0.9933 ± 0.0035
14,AGGAGGGGCG,0.983 ± 0.0099
15,GGATTCATTT,1.054 ± 0.0087
16,AATATAGGAC,0.972 ± 0.013
17,ACAGATTCTA,0.984 ± 0.05
18,AATAGGGGGT,0.996 ± 0.018
19,GTATCAGGCC,0.992 ± 0.01
20,TTCGGGGTGT,1.01 ± 0.044
21,AATGTCTAGA,0.975 ± 0.023
22,TTGATGGTTG,0.964 ± 0.021
23,TGAGAAGACT,1.03 ± 0.033

row,Sequence,switch fluorescence ratio
1,AGTCGATTTT,0.978 ± 0.012
2,GTGGGATGAT,0.9663 ± 0.0078
3,TGGTATAGGC,1.04 ± 0.027
4,ATGAACTAGG,0.991 ± 0.022
5,TTCGTACGTA,1 ± 0.06
6,GGGGTCAGAT,0.986 ± 0.051
7,TGTGAACGTA,1.01 ± 0.052
8,AGTGGGAAAG,0.965 ± 0.027
9,GATTATGTTA,0.9772 ± 0.007
10,AGTCGGTACG,0.994 ± 0.096
11,ATCTTATGTT,0.987 ± 0.025
12,ACGCCCGGGT,1.08 ± 0.051
13,GGGTTTGTGG,0.984 ± 0.023
14,GAGGTTTGTT,0.979 ± 0.023
15,ACGAGAGTTG,0.975 ± 0.021
16,CATCAGTGGT,1.03 ± 0.032
17,TTCCCCGGTG,1.21 ± 0.24
18,TGGTGTATTT,1.01 ± 0.011
19,TCGAATGGGC,0.98 ± 0.037
20,GTATGGCTGG,0.976 ± 0.044
21,ACTGTTATGG,1.066 ± 0.0077
22,TTTTAGGCGT,0.99 ± 0.013
23,TAATTTGGGA,0.997 ± 0.013

row,Sequence,switch fluorescence ratio
1,CATTTGGGTT,1.03 ± 0.059
2,AACGTTGGTT,1.01 ± 0.012
3,TTTTATTTTA,0.991 ± 0.039
4,TCAGAAGGGG,0.995 ± 0.0085
5,GGAAGATTTG,1.06 ± 0.055
6,GGAGGCTGGT,1.018 ± 0.01
7,GTTACCAGGT,1.16 ± 0.097
8,AGTTACGGGT,1.033 ± 0.0032
9,AGGGGATGGG,1.03 ± 0.033
10,TTGCGGGGAA,1.03 ± 0.029
11,GAAAGAGAGG,1.003 ± 0.0076
12,AATCATGGTT,1 ± 0.028
13,TCGGTAGGG,0.9717 ± 0.003
14,TATTAGGGTC,1.02 ± 0.02
15,ATTTAAGTGC,0.981 ± 0.049
16,GGTTATAGTA,0.989 ± 0.042
17,GTTTTTGATG,0.971 ± 0.021
18,ACGGTGTCAC,0.9774 ± 0.0012
19,ATAGTTTGGA,0.947 ± 0.017
